In paper PMC12339391, “PEX39 facilitates the peroxisomal import of PTS2-containing proteins” (Nature Cell Biology, 2025):
Where no end group is shown, it is not given here.

T1: FLAG-PEX7 (recombinant N-terminally FLAG-tagged human PEX7) (human, UniProt O00628 1-323)
T1 construct: PEX7, human; also called recombinant human FLAG-tagged PEX7; source: Hi5 insect cells (baculovirus, pACEBac1), purified (anti-FLAG M2 beads, FLAG peptide elution); not shown: FLAG, N-terminal, kept
T1 sequence (looked up): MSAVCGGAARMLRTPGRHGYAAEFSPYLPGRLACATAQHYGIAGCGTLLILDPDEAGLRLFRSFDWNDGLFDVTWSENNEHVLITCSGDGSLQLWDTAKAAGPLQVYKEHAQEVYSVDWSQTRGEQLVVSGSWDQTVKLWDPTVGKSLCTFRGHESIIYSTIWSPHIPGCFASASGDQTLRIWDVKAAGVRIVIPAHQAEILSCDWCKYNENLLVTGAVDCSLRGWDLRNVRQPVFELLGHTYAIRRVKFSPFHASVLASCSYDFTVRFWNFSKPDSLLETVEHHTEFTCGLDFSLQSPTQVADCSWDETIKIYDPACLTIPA

B1: NtPEX13 (HsPEX13 residues 1–36 fused to Sumo1 with a hexa-histidine tag) (domain or fragment, human, UniProt Q92968 1-36, looked up)
chain: MASQPPPPPKPWETRRIPGAGPGPGPGPTFQSADLG
modifications: also: fused to Sumo1 with a hexa-histidine tag
notes: PEX13, human, residues 1–36; also called NtPEX13.Sumo.His; PEX13 N terminus; source: recombinant (plasmid pET23a-NtPEX13.Sumo.His); not shown: His6, C-terminal, kept
B2: GST-HsPEX39 (N-terminally GST-tagged human PEX39, C6ORF226) (natural protein, UniProt Q5I0X4 1-101, looked up)
chain: MERPRSPQCSAPASASASVTLAQLLQLVQQGQELPGLEKRHIAAIHGEPTASRLPRRPKPWEAAALAESLPPPTLRIGTAPAEPGLVEAATAPSSWHTVGP
notes: HsPEX39 (C6ORF226), human; plasmid pGEX-HsPEX39 (pGEX-6-P1); 101 residues by the printed limits of the 48–101 variant; also called recombinant HsPEX39; wild-type (WT) HsPEX39; source: E. coli BL21(DE3), purified (Glutathione Sepharose 4B); not shown: GST, N-terminal, kept

Assays:
[1] = molecular target: T1, FLAG-PEX7 (recombinant N-terminally …); experiment: SEC; Superdex 200 Increase 3.2/300, 50 mM Tris-HCl pH 7.5, 150 mM NaCl, 1 mM EDTA; proteins (10–15 µg) alone or mixed, 15 min at 23 °C before injection; fractions on SDS-PAGE; conditions: both partners purified
[2] = molecular target: T1, FLAG-PEX7 (recombinant N-terminally …); experiment: native gel or EMSA; only recombinant proteins, two at a time (approximately 5 µg each of FLAG-PEX7, GST-HsPEX39, His-PEX5(1–324), His-PHYH); Coomassie staining; excised bands immunoblotted; conditions: both partners purified

Row | Binder | binding result [1] | binding result [2]
1 | B1 | binds | –
2 | B2 | – | binds
